molecular target: TBP (Homo sapiens) (UniProt P20226); assay: not given; settings: cited from earlier work

Sequence of TBP (P20226 whole entry): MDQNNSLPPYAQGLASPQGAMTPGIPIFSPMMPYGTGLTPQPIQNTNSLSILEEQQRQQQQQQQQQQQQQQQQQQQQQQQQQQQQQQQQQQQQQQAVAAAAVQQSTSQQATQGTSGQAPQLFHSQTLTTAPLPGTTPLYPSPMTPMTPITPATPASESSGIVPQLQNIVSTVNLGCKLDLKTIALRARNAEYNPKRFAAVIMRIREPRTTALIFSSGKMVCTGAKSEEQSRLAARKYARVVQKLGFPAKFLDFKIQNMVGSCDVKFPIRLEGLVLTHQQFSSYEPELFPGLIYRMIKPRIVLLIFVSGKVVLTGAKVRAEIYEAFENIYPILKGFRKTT

Molecule	Kd [nM]
TBP (from UniProt P20226)	4

molecular target: T1, TBP (TATA-binding protein) (human, UniProt P20226 1-339); assay: EMSA; 2 nM TBP; EMSA with 2 nM TBP and varied ODN concentrations; Kd from reaction rates vs ODN concentration (GraphPad Prism 5); buffer, salt, pH and temperature not given in; settings: protein: recombinant; blunt
T1 sequence (P20226 whole entry): as above

Molecule	Kd [nM]
ASMT -30G (rs1402972626 WT) (dsDNA) DNA 1: GGTGACCTTTTGTGCCCAGAATAGGT DNA 2: ACCTATTCTGGGCACAAAAGGTCACC	600 ± 300
ZFY -56T (minor) (dsDNA) DNA 1: GGCGGAGGGGGCCTAACTACCATCCC DNA 2: GGGATGGTAGTTAGGCCCCCTCCGCC	2000 ± 1000
GTPBP6 -24G (rs1393008234 WT) (dsDNA) DNA 1: ATCACGAGCACGTGATGAGGAGCGGC DNA 2: GCCGCTCCTCATCACGTGCTCGTGAT	1500 ± 200
CDY2A -24 minor (printed -24t, sequence has C) (dsDNA) DNA 1: AGAATGTTCCATACAATCGTCATAGC DNA 2: GCTATGACGATTGTATGGAACATTCT	500 ± 200
ASMT -30A (rs1402972626 minor) (dsDNA) DNA 1: GGTGACCTTTTGTACCCAGAATAGGT DNA 2: ACCTATTCTGGGTACAAAAGGTCACC	1000 ± 300
CDY2A -24 WT (printed -24G, sequence has T) (dsDNA) DNA 1: AGAATGTTCCATATAATCGTCATAGC DNA 2: GCTATGACGATTATATGGAACATTCT	160 ± 30
GTPBP6 -24T (rs1393008234 minor) (dsDNA) DNA 1: ATCACGAGCACGTTATGAGGAGCGGC DNA 2: GCCGCTCCTCATAACGTGCTCGTGAT	1400 ± 200
ZFY -56C (WT) (dsDNA) DNA 1: GGCGGAGGGGGCCCAACTACCATCCC DNA 2: GGGATGGTAGTTGGGCCCCCTCCGCC	1000 ± 400

molecular target: T1, TBP (TATA-binding protein); assay: EMSA; 2 nM TBP; Kd from association kinetics; EMSA with 2 nM TBP and varied ODN concentrations; Kd from reaction rates vs ODN concentration (GraphPad Prism 5); buffer, salt, pH and temperature not given in; settings: protein: recombinant; blunt

Molecule	Kd [nM]
SHOX -45G (rs1452787381 minor) (dsDNA) DNA 1: GAGGTCGCCGCGTGTAAATAGTGAGA DNA 2: TCTCACTATTTACACGCGGCGACCTC	260 ± 70
SHOX -45A (rs1452787381 WT) (dsDNA) DNA 1: GAGGTCGCCGCGTATAAATAGTGAGA DNA 2: TCTCACTATTTATACGCGGCGACCTC	39 ± 7

Source: PMC7583315, “Disruptive natural selection by male reproductive potential prevents underexpression of protein-coding genes on the human Y chromosome as a self-domestication syndrome”
